Assays:
[1] = target: the molecule itself; assay: asymmetrical flow field-flow fractionation with UV, MALS and dRI detection (AF4-UV-MALS-dRI); self-association; carrier liquid 10 mM citrate-phosphate buffer pH 6, room temperature; relative amounts from deconvoluted UV fractograms at 280 nm
[2] = target: the molecule itself; assay: asymmetrical flow field-flow fractionation with UV, MALS and dRI detection (AF4-UV-MALS-dRI); self-association; carrier liquid 10 mM citrate-phosphate buffer pH 8, room temperature; relative amounts from deconvoluted UV fractograms at 280 nm

B1: glutamate decarboxylase (LbGadB) from Lactobacillus brevis DSM 1269, recombinant (enzyme, UniProt A9ZM78 1-480, looked up)
chain: MMNKNDQETQQMINNVDLEKTFLGSVEAGQSLPTYTLPDDPMAPDVAAQLVEHYRLNEAKANQNLATFCTTQMEPQADELMKNALNTNAIDKSEYPKTAAMENYCVSMIAHLWGIPDNEKIYDDFIGTSTVGSSEGCMLGGLALLHSWKHRAKAAGFDIEDLHSHKPNLVIMSGYQVVWEKFCTYWNVEMRQVPINGDQVSLDMDHVMDYVDENTIGIIGIEGITYTGSVDDIQTLDNLVTEYNKTATMPVRIHVDAAFGGLFAPFVDGFNPWDFRLKNVVSINVSGHKYGMVYPGLGWIVWRHDTADILPAEMRFQVPYLGKTVDSIAINFSHSGAHISAQYYNFIRFGLSGYKTIMQNVRKVSLKLTAALKTYGIFDILVDGSQLPINCWKLADDAPVGWTLYDLESELAKYGWQVPAYPLPKNRDDVTISRIVVRPSMTMTIADDFLDDLKLAIDGLNHTFGVTTTVDQDNKTTVRS
notes: glutamate decarboxylase LbGadB of Lactobacillus brevis DSM 1269; gene amplified from genomic DNA with a forward primer that holds the ATG (NdeI site) and a reverse primer with an XhoI site, cloned in pET21b; gene deposited as GenBank KX417371; Oligomeric state depends on pH: dimer at pH 7-8, hexamer at pH 6, so copies is left empty; the whole gene appears to have been cloned; Cloning NdeI/XhoI in …
For B1, the “stoichiometry N” value [1] was 6 and the “stoichiometry N” value [2] was 2.

— paper PMC5750328, “Study on oligomerization of glutamate decarboxylase from Lactobacillus brevis using asymmetrical flow field-flow fractionation (AF4) with light scattering techniques” (Analytical and Bioanalytical Chemistry, 2017)
